{"source": "patent US20090169570A1", "about": "(BIOTEST, published 2009)", "binders": {"B1": {"name": "nBT062-SPDB-DM4 (antibody, human IgG4, kappa, V domains shown)", "VH": "QVQLQQSGSELMMPGASVKISCKATGYTFSNYWIEWVKQRPGHGLEWIGEILPGTGRTIYNEKFKGKATFTADISSNTVQMQLSSLTSEDSAVYYCARRDYYGNFYYAMDYWGQGTSVTVSS", "VL": "DIQMTQSTSSLSASLGDRVTISCSASQGINNYLNWYQQKPDGTVELLIYYTSTLQSGVPSRFSGSGSGTDYSLTISNLEPEDIGTYYCQQYSKLPRTFGGGTKLEIKR", "modifications": "maytansinoid DM4 attached via SPDB (disulfide) linker; attachment residues and chain not stated"}, "B2": {"name": "nBT062-SMCC-DM1 (antibody, human IgG4, kappa, V domains shown)", "VH": "B1 VH", "VL": "B1 VL", "modifications": "maytansinoid DM1 attached via SMCC (non-cleavable) linker; attachment residues and chain not stated; average of 3.5 DM1 per antibody stated for nBT062-DM1"}, "B3": {"name": "B-B4-SPP-DM1 (antibody, V domains shown)", "VH": "B1 VH", "VL": "DIQMTQSTSSLSASLGDRVTISCSASQGINNYLNWYQQKPDGTVELLIYYTSTLQSGVPSRFSGSGSGTDYSLTISNLEPEDIGTYYCQQYSKLPRTFGGGTKLEIK", "modifications": "maytansinoid DM1 attached via SPP (disulfide) linker; attachment residues and chain not stated", "notes": "the variable domain limits are inferred as for B-B4"}, "B4": {"name": "nBT062-SPP-DM1 (antibody, human IgG4, kappa, V domains shown)", "VH": "B1 VH", "VL": "B1 VL", "modifications": "maytansinoid DM1 attached via SPP (disulfide) linker; attachment residues and chain not stated; average of 3.5 DM1 per antibody stated for nBT062-DM1"}, "B5": {"name": "nBT062 (antibody, human IgG4, kappa, V domains shown)", "VH": "B1 VH", "VL": "B1 VL", "notes": "also called cB-B4; chimeric B-B4"}}, "key": {"[1]": {"biological_target": "T1, CD138 expressed on the cell surface (OPM-2, MOLP-8 cells) (human, UniProt P18827 23-310)", "T1 sequence (looked up)": "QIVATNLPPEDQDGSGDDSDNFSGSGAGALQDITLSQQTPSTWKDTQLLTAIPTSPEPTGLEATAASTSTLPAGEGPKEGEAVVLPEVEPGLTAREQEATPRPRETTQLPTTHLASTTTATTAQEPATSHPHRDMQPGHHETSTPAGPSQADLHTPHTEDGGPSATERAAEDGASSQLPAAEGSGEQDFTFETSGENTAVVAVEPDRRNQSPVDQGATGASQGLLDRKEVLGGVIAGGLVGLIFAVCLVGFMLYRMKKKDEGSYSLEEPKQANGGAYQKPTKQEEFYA", "test": "cell-based or functional assay"}, "[2]": {"biological_target": "T1, CD138 expressed on the cell surface …", "test": "FACS on CD138+ OPM-2 cells, fluorescence-labeled secondary antibody, mean fluorescence against concentration", "from_the_text": "The mean fluorescence measured in these experiments was plotted against the antibody concentration.\nIn FIG. 6, the mean fluorescences as measure for the amount of cell bound antibody is plotted against different antibody or conjugate concentrations."}, "[3]": {"biological_target": "T2, Soluble CD138 antigen from U-266 cell culture supernatant, biotinylated (human, UniProt P18827 23-245, limits assumed, biotinylated on primary amino groups with Sulfo-NHS-LC-Biotin)", "T2 construct": "This is the soluble form in the supernatant of the human MM cell line U-266; also called bCD138; biotinylated CD138", "T2 sequence (looked up)": "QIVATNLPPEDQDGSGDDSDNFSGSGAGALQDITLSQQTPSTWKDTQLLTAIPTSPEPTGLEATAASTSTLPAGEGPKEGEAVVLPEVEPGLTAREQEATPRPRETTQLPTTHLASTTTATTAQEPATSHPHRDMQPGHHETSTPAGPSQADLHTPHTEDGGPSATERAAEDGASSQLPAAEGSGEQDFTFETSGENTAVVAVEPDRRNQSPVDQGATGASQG", "test": "SPR (BIACORE C), mean of three independent experiments, biotinylated soluble CD138 on streptavidin chip", "protocol": "(§1) The unbound biotinylation reagent was removed using protein desalting columns. Immobilization of bCD138 The sensorchip (SENSOR CHIP SA, BIACORE AB) used in the BIACORE assay is designed to bind biotinylated molecules for interaction analysis in BIACORE systems. The surface consists of a carboxymethylated dextran matrix pre-immobilized with streptavidin and ready for high-affinity capture of biotinylated ligands. Immobilization of bCD138 was performed on SENSOR CHIP SA using a flow rate of 10 μL/min by manual injection. The chip surface was conditioned with three consecutive 1-minute injections of 1 M NaCl in 50 mM NaOH.\n(§2) The software of BIACORE C uses pre-defined masks, so called “Wizards” for different experiments where only certain settings can be changed. As the BIACORE C was originally developed to measure concentrations, there is no wizard designed to carry out affinity measurements. […] With this wizard, two flow cells were measured and the dissociation phase was set to 90 s by performing the “Regeneration 1” with BIACORE running buffer. […] The dissociation equilibrium constants were determined by calculating the rate constants ka and kd. Afterwards, the KD-values of the analytes were calculated by the quotient of kd and ka with the BIAevaluation software."}, "[4]": {"biological_target": "T2, Soluble CD138 antigen from U-266 cell …", "test": "SPR (BIACORE C), biotinylated soluble CD138 on streptavidin chip, conjugate as analyte at 3.13-100 nM", "protocol": "as §1, §2"}}, "note": "“And” between values parts separate entries of the source, which are not always exact repeats. Equal entries are not always repeated.", "data": [{"binder": "B1", "values": [{"measurement": "IC50 (read off the curve); surviving fraction of MOLP-8 cells (WST viability assay, 5 days), curve 'w/o blocking'", "setting": "[1]", "value": "~0.08", "unit": "nM"}]}, {"binder": "B2", "values": [{"measurement": "EC50 (read off the curve)", "setting": "[2]", "value": "~1", "unit": "nM"}]}, {"binder": "B3", "values": [{"measurement": "Kd", "setting": "[3]", "value": 2.6, "unit": "nM"}, {"measurement": "Kd", "setting": "[4]", "value": "2.6 nM and 2.7 nM"}]}, {"binder": "B4", "values": [{"measurement": "EC50 (read off the curve)", "setting": "[2]", "value": "~1", "unit": "nM"}]}, {"binder": "B5", "values": [{"measurement": "EC50 (read off the curve)", "setting": "[2]", "value": "~1", "unit": "nM"}]}]}
